Results on one molecule are retold here after paper PMC5428264, “Dentin sialoprotein facilitates dental mesenchymal cell differentiation and dentin formation” (Scientific Reports, 2017).

The target in assay [1] is T1, GST-DSPf5 fusion protein (COOH-terminal DSP domain aa 363–458) (mouse, UniProt P97399 363-458).
T1 construct: also called DSP peptide; source: E. coli BL21, purified (GSTrap 4B)
T1 sequence (looked up): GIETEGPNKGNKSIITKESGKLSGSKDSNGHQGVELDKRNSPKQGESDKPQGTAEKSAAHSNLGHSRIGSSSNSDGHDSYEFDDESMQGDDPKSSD
The assay is described as follows: co-IP; in vitro immunoprecipitation: 10 μg of purified GST-DSP and GST-Ocln fusion proteins mixed, precipitated with DSP or Ocln antibody and protein G Sepharose, blotted with the other antibody. As to conditions: both partners purified.

For assay [2], the target named is T2, biotinylated DSPf5 (recombinant DSP aa 363–458) (mouse, UniProt P97399 363-458, biotin (Sulfo-NHS-LC-biotin)).
T2 construct: The same recombinant protein as m6, labelled with biotin; source: E. coli BL21, purified (GSTrap 4B), then reacted with Sulfo-NHS-LC-biotin
T2 sequence (looked up): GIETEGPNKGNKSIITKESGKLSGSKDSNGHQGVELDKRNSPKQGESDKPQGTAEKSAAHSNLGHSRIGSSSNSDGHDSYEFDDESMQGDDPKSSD
The assay is described as follows: ELISA; substrate binding assay: OclnL2 coated at 1 μg per well (BSA as control), biotinylated DSPf5 at 0–18 fold molar excess in PBS with 1% BSA, room temperature, different time periods; AP-conjugated streptavidin, PNPP, 405 nm. As to conditions: both partners purified.

B1: GST-OclnL2 fusion protein (occludin extracellular loop 2, aa 194–241) (domain or fragment, mouse, UniProt Q61146 194-241, looked up)
chain: GVNPTAQASGSMYGSQIYMICNQFYTPGGTGLYVDQYLYHYCVVDPQE
notes: occludin, mouse, extracellular loop 2, residues 194-241 counted from the translation start site; Cloned into pGEX-6P3 from pBluescript SK-Ocln; also called Ocln loop2; extracellular loop 2 of Ocln; source: E. coli BL21, purified (GSTrap 4B)
Turning to B1, the binding result in assay [1] and in assay [2] was “binds” throughout.
